A protein production outcome set (Wang et al. 2014)

Experiment: label from the status in PepcDB records

Sequence | protein production
MNDIILKSLSTLITEQRNPNSVDIDRQSTLEIVRLMNEEDKLVPLAIESCLPQISLAVEQIVQAFQQGGRLIYIGAGTSGRLGVLDASECPPTFGVSTEMVKGIIAGGECAIRHPVEGAEDNTKAVLNDLQSIHFSKNDVLVGIAASGRTPYVIAGLQYAKSLGALTISIASNPKSEMAEIADIAIETIVGPEILTGSSRLKSGTAQKMVLNMLTTASMILLGKCYENLMVDVQASNEKLKARAVRIVMQATDCNKTLAEQTLLEADQNAKLAIMMILSTLSKSEAKVLLERHQGKLRNALSK | not failed
MNDLKRLPYEPVKGLLPRPAVGTSERVITLPEPDRTSGMPLMGTLWLRKSTREFDQQPLPLKQLSELLWAAAGVNRSLGGGRTAPSPYGETVIDVYVALPAGLYRYDPVHHCLELKRAADLRSMTGYQDFVGMAPLDLVFVANHGRMQEMPPKLRETFSAAAAGAMAENAYLYCASAGLGAVVRGWLNRRQLAEHMSLNEDEEPILSQTIGRAASHVTTTQA | not failed
MNDNVLRYIKRVFNLITILGFVATIVGGIYLWRLGAFQNQAVLQQLIVAHRFLGPLIFLCMQILQVIVPIIPGGITMAAGVMIFGPVWGFVYNYFGIVAGSFLLFHFGKKYGSSLAKTFVKEKTYNKYMAWLDKGQKRFNIVFALLILSPIAPDDALVLIASQTKMSWKFFTWSILLCKPLPILLYSYLLIFGGDLLGHIL | failed
MNDPQKLCDVNFFRPRKGYMTGEVAIIAAVLVGWAVANFGFQGVLALLAQSPDGEGILTRLTFLSFPWHFWFTGQFLPLWFIILCVLFNIYIDRHTEQHSRRRDRSHD | failed
MNDQELRAYLSQAKTIAVLGAHKDPSRPAHYVPRYLREQGYRVLPVNPRFQGEELFGEEAVASLLDLKEPVDILDVFRPPSALMDHLPEVLALRPGLVWLQSGIRHPEFEKALKEAGIPVVADRCLMVEHKRLFRGPLPL | not failed
MNDRMDPPPPRIEDILPHRGSMLLLAHVDTWDDETLRASAHVDPTAWYADPEGAMPAWFGIELMAQAIAAHVGLLSMREGNPARPGVLLGSRKYEAHAPAFAPAQPLSIAVQEVLRSTEGHGAYACTIAAGGRDLAQAVIKVYQPTDFQAFIEGSFAS | failed
MNDTLLTTYTLAEGLHWLDLIGVLAFAMSGALLGVRKRFDLFGVLVLGAVTAVGGGAIRDSLTGQTPPLFLRDETYLWTALLGALLAFAFGERLARFERTLSLFDSAGLALFATSGALGAIKIGLGPLGVVFAGMLSGVGGGIIRDLIANEVPEVMYRRDQLYATAAAAGAGAVWLLAPHFTPFQAQAGGALLVLFLRWVSRRQWVRLPVRRLPE | failed
MNEEKQQELLISVIITNYNYDQFIDQAIESVLSQTYYNFELIIVDDGSTDNSRDVISSYTDSRIKALVKNNGGQASAFNAGFEQANGEIICFLDSDDWWKPEKLETIIRWHYFINKDYAIFQHVLDVWYEGKTRPYKHILPSGDCFAEMKKVKKLDFFVPTSGLSFPKKILDRIFPIPIKFIIAADSYIMRTACVFNMVYSIPKSLGFYRQHDNTVFLNPDFDLQPFLKEILIPELNQFYQKYRINYQIEISDYNFNERKKNKKQKIFEYLKKVFFLEHHHHHH | failed
MNEFMEPLDRISAETLGHYERNAEAFFEGTRDHDVSQNIAALLSHIRTEPPFTVLDFGCGPGRDLKAFTELGHRAVGLDGAFRFVEMARDYSGCEVWHQDFLKLDLPEEHFDGIFANATLFHVPSRELPRVLGELRAALKPEGVLFASNPRGRNEEGWNRGRYGVYHDLDTWRRFLTSAGFLELEHYYRPAGLPRDQQPWLASVWRRTLEHHHHHH | not failed
MNEIITWILIVICLTQSAVFSGLTIGIFGLGRLRLEIEAEANNKNAIKILQVRRDSNFLLTTLLWGNVGVNVLIAQLTDSVMAGTFAFLFSTFGITCFGEIMPQAYFSRNALDIGAKLTPLVRFYQMLLYPVAKPTALVLDWWLGREKLELFREQAMRIMLEKHIESGKTDIGTFEGIGALNFLSIDDVSISDEGSIIDSRSIISLPVENNRPVFPPFNREPSDPFLQKIEASGKKWVIITSPENEPVMVLDADGFLRDAVYKKGPFLPLIYCHFPVVVKSPETRLEKVIRQFKVYPQYPEDDVIDQDLILYWGEEKRIITGSDILGRLLRGIVVECELGSGCEIPVPPSQPGFVRRTAFRRGKKKEIENLKRK | not failed
MNEISVVLPAYNEEENIQKLVKRWQQLCKDLKYKYELSLNIFVIDDGSKDKTEVIGRELERKYDNFYLIKHDKNKGLGEAINTGIKYVMEKRSDSKYVCIMDCDNTQDPRYVFSMIEKMEKTDVVIASRYQKGSCVKGVPFFRLTASYGARFVYTIFLGVKNVRDYTCGYRLYRTSALKTAFKVFGESFIEESGFTCMVELLYKLNICGAVFKEVPFTLRYDFKGGVSKMKVLITAINSVKLTLRLKKIRKGVEPVLEDLEHHHHHH | failed
MNEKSFNYDFSVIMPIYNVELYLTEAIESIINQTIGFENIQLILVNDDSPDKSEIICKEYAQKYPNNIVYAKKQNGGVSSARNYGLKYAEGRYIQFLDPDDLVSEGTFENVLNFFDEHKNEIDIVAIPIFFAEGRTGEHNLNNKFSSTRILDVEKEPHHILTHCCSTFIKKDALKNIRFDENCKIGEDAKLVNLIISQKKKYGLVKEAKYHYRVREDGSSAMQTAKANKNWFNHSLITFSKNLIDIIKNHEQKIPLFLQYMVMHDLKWKLLIKDISETPLDENEYSEFLTLIREVLSYIDDDVIIETKSVSHFYLYHALKIKHGENYSRYVYERETEQDYYLYREGKIVSKLSDQTLTIEILEENEDSIHIEGFWSSLFNSKGFKFYAKIGETKIKAKNIKRQHNDYISLGEVIKKYPGFSIDIPKGHLADNHHIEFFITKGKKRKLTKLRFFKYSGLSNDLYNTYVAKKDYIFYYNYKKLMFKKNNFKNRFIKEFRFLKSLHKSGEKSKKRKSAIKKALMARMVHHVFTIFNRKPVWLFIDRQDKADDNAEHLFKYAINKNDGVKKYFIIKKDSKDYDRIKKYGKVIPYRSFRHKILTLSSSKVISTHADIWVVNPFFNMEIYFRDLFNFEFIFLQHGITMADHSEWLNKYNKNIKLLVTSAKPEYRSIVKGNYNYKKENILLGGFPRYDNLKKSEGEKQLLIMPTWRKDIVLPKDQAKGVRPYNPKFKDSEYFSRYNALINDERLIEFAKKNNYKITFFPHPDIQQQIVDFEKHDYVEFADYNSSYQMLFNSSNIMITDFSSVAFDFAYEKKPVIYYQYEKSYHFKLDYYDYKKMGFGDVLENHNSLVDKVIYYMKNNSRMEDKYRKRVDNFFAYTDKNNRNRIYNAILELDNNKVAK | failed
MNELFDAKESLSPAEREDSLFQRLPTLIENAKANSEHYGNIFSGIDASIASNREGLAQFPITRKFNVPSQQQLKPPFGGLNSVAIGQMARVFQSPGPLYEAQTDESDFWRMGRAFHAAGFRRGDLVHNTLSYHFSPGGFIMDGGARACGCAVFPAGVGNTEAQIEAIKQLQPTGYTGTPSYLLTLLQKYQEQYGELPSFTKALVSGEAVTADMQQAFTDKGIAVFQAYASAELGLIAYQVAGEQGLVIGEDIIVEIVDPDGMPVPPGEVGEVVVTSLDEKFPLIRYATGDLSAYIENDANSPYTNMRIKGWMGRADSAVKVKGLFVYPHQIQEVCRRHEITGSLKIERDGFNDTITFCCHDVHVSAEDIQATLQSVTKLKGNVQFVANDADQPLINDLRS | failed
MNEPLSSLELLPEEEGGANLTYFAFAAPTASAPDLPAVLPGPLPDVLSGRYRLERMLGAGGMGTVYRARDLLHEQFGDPAPLVALKLLNESVAESPDASALLYSEFALTRRLRHPNVVRLFTFDVDTACQRAYIVMELMPGLPLDRLLCERPEGLPWSELSAIARPLLDVLAYVHEQGVLHGDLKPSNVMLGEEGVRLFDFGLGQAQAGILDGLPQLSRGRIDAWTPGYAAPELLEGAPLSPAADLYALACVLYELADGRHPFRRLPSNQAREQGLERQLRAPRHLPRRCWPALRTALSLDPERRCIGVRELQEALGARRSWLAGVLAR | failed
MNEQPNNENITQSASRDLQIIEDDAFSYEGYQVVRGEFFAHTYEPSFTFNANKVSVNTACIKKLPQTDFVQILVNPDEKKLAVRPCQEDEKDSFRWCSATKKRSPRQITCRIFFAKVISLMEWNPSYRYKLLGKLIRSDNELLFVFDLTTPEIYVRAEKEDGKIKTSRTPTYPAEWQNQFGVPVEEHQSNLQINMFDGYAVFGILEHHHHHH | not failed
MNETEFYAYHIVTRKKMHIGQMIPFNKNQHNTLYHFFFEREQLNANGEDGIQILNNHYKNDELHINNENAKVVISYMDQTIRAARETIVEMVRLQEFPEYPSRLSCLYAAKSYEDALKWKALFDSYNREVLQIVKLRVIGSSFEGDGNLLPKEDGIPFSQKIEQARKYWKGNIRNELPELLINGEIEVVEIIDDFSSIHI | not failed
MNETINYDSLLILSVVAFFTPFLVSRLKRVNIPYQVGEIFIGILLGKSFLNIIKPDIWILFLSNLGLAYLMFLSGLAIDFDELKPKEGELLKDSKLFTSIKMFIVSIITAIILSFTLKFAGISEGYIFFALLFTAAAPGLLVPILKTKHIINSSYGQTLLVFGIITQLVSLIGVTFVASVAVNGITLKSFTFLIIFAVAIVVYFLSKIIFKVHDFSTIAFKNLHLSVRGAFVLVLVLVAVAEKVDSEIILGSFLAGMVFSLIVGKAKEEISHQLDVVGYGFLIPIFFIMVGVNVDLKAVVENPQSIAKIPLFILIFFLVKFIPSLLLKKKYGKRNSLAASMLLTAQLSLVIVGSQMALNLGYITAADYSAFVVTTVITCIFFPILFEKLITLNGDTNDTVEEDEKIIIREVLVSSQWYIGKALKDCKLPTGCRIFSMVRDDHEFMPNANTILEENDLVILAGVKHDVNETLNMLSTCDLTLPEE | failed
MNEVKAVWIRQWFPGLYQFKDYQRGWLTDDVRAAFSVVAVALPVAIAYAQLTGVPAIVGLYSCVLPMLVYALMGTSRQLIVGPDAATCAVIAAVVTPLAAGDTTKHWQLVMTMTAMTGFWCILASRLKLGIFADFLSRPILLGLLNGVALTIIVGQFAKVLGLKYEKRYLLERIVEAPELLYSLHWQTLGLSALTLAIYLVIKRWQPRWPAAMFAIMVAALLVWALNLESVGVQVVGVIQGGLPEFQAPAFDLGISRELVMPALNLAMVSFVSMMLTARSFAAKNGYDIDADKEFRALGVANVAAAFSQGFAISGADSRTAVNDANGGKSQLVSVIAALFIALVAVFAYQPLQFIPVAALGVVLIIASLSLLDLKGVWNLRKRDKDAFYLALITFIAVLVIGVIPGITLAVLLGLFQFLKLVMRPTDQMMGLDEEGTLRTLDGSEKAKPIPGMVIFRFNSPLTYFNAPYFKRRILDQTEREGAQVGCVIIDAVASFTHLDLSVMAMLADLHGILKKRGIRLILAGRKRSLRHWCDLTGINTAEGGIVLRADMYLAIKLSGCYLSAMEEGHVPVVQKEPDISVLLKPTTTEVA | failed
MNFDRTFLTFLGVIMLVHLHIFFAFLSLALLVIRGAMQLNGKNWRSIKLLKILPHLSDTLLIVSGVVILYLFAFGIEWWLVAKFALLILYIVFAAKFFSKKVSQPKSIFFWLACVSFIGAMLIAYLK | failed
MNFELSSPFSPTGDQPEAIAALSDGIKSGVPFQTLLGVTGSGKTFTIANVIKEVRKPTLILSHNKTLAAQLYSEFKAFFPNNAVEYFVSYYDYYQPEAYLPTTDTYIEKDLQINDEIDKLRLRATASLLSGRKDVIVVSSVSCLYGMADPTAFAEKVVHLEKGMRIDRDKLLRRFVDALYVNNKIEFNRGCFRVNGDTVDIFPAIETFDGAAYRIEFWDDEVDRISSFDPQTGQEIDEQDELNIYPTNLFVTTQERINTAIGQIDVDLGTQVNFLREIGKPYEAKRLYERVTFDLEMIRELGHCSGIENYSRYFDGRQAGERPFCLLDYFPKDFLLVVDESHVTIPQIRAMYGGDYSRKKNLVDYGFRLPAAMDNRPLTFDEFESLTPLAIYVSATPADYELEKSEGIVVDQVIRPTGLLDPVIEVRPTLNQIDDLMEEITQRAAVDERVLVTTLTKRMAEELTAYLTRMGIRCNYIHSDVDTLERIQIMDDLRKGLFDVLIGVNLLREGLDLPEVSLVAILDADKEGFLRSHRSLTQTAGRAARNVNGKVIFYADKITDSMRLTMDETARRREKQLAYNEKHGITPKQVIKNSVSLVAEKQQPVTGEPYAYVEPEPSLVADPVVQYMNRKQLEKAIERTKKQMMEAAKKLDFIEAAQFRDELVKLEDLLVTKKD | failed
